Experimental data as given in article PMC4299599, “Quantification of cytosolic interactions identifies Ede1 oligomers as key organizers of endocytosis” (Molecular Systems Biology, 2014).

Key:
Pan1 = target: T1, Pan1 (S. cerevisiae, UniProt P32521 1-1480); experiment: fluorescence cross-correlation spectroscopy (FCCS); in the cytoplasm of living yeast cells; first-named protein green (3myeGFP or 1myeGFP; eGFP for Don1), second red (3mCherry); self-interaction in diploid strains with one allele of each colour; apparent or effective KD (Kdeff) from single-cell measurements; only Kdeff values < 1000 nM are shown; values for self-interactions are upper limits; conditions: partners not purified
T1 construct: Pan1, S. cerevisiae; also called Pan1-1myeGFP; Pan1-3mCherry; source: chromosomally tagged at the endogenous locus, in the cytoplasm of living S. cerevisiae cells
T1 sequence (looked up): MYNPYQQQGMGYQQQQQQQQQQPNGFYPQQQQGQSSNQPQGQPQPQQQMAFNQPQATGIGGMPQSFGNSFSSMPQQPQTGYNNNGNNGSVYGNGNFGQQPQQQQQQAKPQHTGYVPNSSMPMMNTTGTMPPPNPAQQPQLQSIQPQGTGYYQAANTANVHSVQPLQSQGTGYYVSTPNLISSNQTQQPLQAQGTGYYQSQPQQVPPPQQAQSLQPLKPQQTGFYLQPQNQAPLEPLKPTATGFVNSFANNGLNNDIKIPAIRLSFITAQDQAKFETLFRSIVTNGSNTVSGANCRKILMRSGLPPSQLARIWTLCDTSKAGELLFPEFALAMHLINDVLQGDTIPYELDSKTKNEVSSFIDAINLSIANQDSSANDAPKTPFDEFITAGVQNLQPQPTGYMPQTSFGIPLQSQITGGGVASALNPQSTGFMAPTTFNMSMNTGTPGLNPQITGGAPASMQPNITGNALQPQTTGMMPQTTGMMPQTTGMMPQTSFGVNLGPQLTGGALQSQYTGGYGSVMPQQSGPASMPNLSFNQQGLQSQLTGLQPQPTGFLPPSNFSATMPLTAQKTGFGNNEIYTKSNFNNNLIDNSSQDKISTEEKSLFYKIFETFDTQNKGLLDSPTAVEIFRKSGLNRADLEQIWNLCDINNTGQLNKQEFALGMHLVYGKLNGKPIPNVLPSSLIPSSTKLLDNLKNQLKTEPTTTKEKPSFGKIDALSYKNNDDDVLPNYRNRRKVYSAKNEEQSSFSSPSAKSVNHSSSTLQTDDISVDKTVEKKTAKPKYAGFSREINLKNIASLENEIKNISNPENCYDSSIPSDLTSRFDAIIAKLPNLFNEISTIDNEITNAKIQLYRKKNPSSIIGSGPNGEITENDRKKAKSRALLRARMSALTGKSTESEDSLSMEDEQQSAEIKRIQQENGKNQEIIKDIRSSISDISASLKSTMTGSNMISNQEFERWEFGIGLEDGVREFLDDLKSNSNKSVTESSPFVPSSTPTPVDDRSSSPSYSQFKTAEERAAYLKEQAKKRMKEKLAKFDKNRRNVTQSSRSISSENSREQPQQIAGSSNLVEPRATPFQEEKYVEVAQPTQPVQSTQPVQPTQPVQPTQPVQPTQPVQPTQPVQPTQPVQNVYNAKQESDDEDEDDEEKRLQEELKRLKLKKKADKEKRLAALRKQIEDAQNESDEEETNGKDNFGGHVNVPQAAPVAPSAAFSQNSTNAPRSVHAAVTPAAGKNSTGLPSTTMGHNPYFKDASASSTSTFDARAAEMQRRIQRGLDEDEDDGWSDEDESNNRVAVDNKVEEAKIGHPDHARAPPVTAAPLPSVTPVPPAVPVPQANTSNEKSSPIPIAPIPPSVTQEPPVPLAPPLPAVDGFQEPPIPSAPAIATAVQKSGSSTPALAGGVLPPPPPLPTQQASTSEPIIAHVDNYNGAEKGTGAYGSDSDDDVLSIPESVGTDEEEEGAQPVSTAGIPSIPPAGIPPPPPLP

Sla2 = target: T2, Sla2 (S. cerevisiae, UniProt P33338 1-968); experiment: as above; conditions: partners not purified
T2 construct: Sla2, S. cerevisiae; also called Sla2-3myeGFP; Sla2-3mCherry; source: chromosomally tagged at the endogenous locus, in the cytoplasm of living S. cerevisiae cells
T2 sequence (looked up): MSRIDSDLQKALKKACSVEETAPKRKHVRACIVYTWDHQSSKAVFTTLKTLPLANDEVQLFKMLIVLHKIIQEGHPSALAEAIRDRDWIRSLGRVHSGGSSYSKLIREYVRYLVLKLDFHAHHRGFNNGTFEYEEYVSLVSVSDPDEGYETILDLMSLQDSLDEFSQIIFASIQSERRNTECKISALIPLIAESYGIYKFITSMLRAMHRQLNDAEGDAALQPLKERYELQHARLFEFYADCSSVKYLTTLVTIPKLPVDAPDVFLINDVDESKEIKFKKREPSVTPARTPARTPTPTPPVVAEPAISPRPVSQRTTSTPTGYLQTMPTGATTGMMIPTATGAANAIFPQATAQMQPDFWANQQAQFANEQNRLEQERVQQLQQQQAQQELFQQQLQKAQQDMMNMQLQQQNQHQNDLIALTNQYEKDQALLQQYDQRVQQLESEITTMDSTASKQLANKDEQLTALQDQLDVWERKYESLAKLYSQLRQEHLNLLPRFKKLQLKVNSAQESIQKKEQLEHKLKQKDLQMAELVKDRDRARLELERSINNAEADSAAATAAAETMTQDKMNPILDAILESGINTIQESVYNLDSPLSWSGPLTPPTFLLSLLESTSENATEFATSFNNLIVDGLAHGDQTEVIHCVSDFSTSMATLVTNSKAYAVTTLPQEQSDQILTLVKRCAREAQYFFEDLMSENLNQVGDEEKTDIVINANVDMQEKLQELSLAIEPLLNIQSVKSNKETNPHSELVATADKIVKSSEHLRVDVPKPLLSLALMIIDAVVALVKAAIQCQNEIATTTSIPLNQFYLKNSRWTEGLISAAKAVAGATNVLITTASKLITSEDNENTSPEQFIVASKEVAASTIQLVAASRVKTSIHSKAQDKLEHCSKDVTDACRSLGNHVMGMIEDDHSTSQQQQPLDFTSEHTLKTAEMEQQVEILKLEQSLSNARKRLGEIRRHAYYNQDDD

B1: End3 (natural protein, S. cerevisiae, UniProt P39013 1-349, looked up)
chain: MPKLEQFEIKKYWQIFSGLKPIENKVNHDQVLPILYNSKLDSSVLNKIWFLADIDDDDNLDFEEFVICMRLIFDMVNKNISSVPDELPDWLIPGSKVNLIKERKKRKQIENADLPPKKEIKVDWYMSPDDLNQYEKIYNSCAKLTDGTITFNELSTKLSTKFFNISKTDLNKVWSLINPQNLPSIDRDPTFYFIHCLRQRNDLGAEIPASLPNSLAEVCNKKQLSYDLRSSQPPTKRKEEANEVDNLRDNGQNSSSDSSGSNVLSNEDSIKQKYASLTDDQVANMREQLEGLLNYKKSEKTQGGSKLSKRINIRSITDDLDNIEQQVEVLENYLNNKRHELQALQAEIN
notes: End3, S. cerevisiae; also called End3-3myeGFP; End3-3mCherry; source: chromosomally tagged at the endogenous locus, in the cytoplasm of living S. cerevisiae cells
Pan1
  Kd: 27 nM
Sla2
  Kd: 622 nM
